In publication PMC4348373, “YY1 suppresses FEN1 over-expression and drug resistance in breast cancer”:

Assays:
YY1 [1] = target: T1, YY1 (UniProt P25490 1-414); experiment: EMSA; complex diminished by anti-YY1, not by IgG (Fig 2C); Pull-down: 25 mM Tris, 150 mM NaCl, pH 7.2, room temperature, 30 min; EMSA: LightShift chemiluminescent kit, 5% native PAGE, buffer not stated; conditions: protein: recombinant; tags: N-terminal 3xFlag; label: 5'-biotin
YY1 [2] = target: T1, YY1; experiment: EMSA; Pull-down: 25 mM Tris, 150 mM NaCl, pH 7.2, room temperature, 30 min; EMSA: LightShift chemiluminescent kit, 5% native PAGE, buffer not stated; conditions: protein: recombinant; tags: N-terminal 3xFlag; label: 5'-biotin

T1 sequence (P25490 whole entry): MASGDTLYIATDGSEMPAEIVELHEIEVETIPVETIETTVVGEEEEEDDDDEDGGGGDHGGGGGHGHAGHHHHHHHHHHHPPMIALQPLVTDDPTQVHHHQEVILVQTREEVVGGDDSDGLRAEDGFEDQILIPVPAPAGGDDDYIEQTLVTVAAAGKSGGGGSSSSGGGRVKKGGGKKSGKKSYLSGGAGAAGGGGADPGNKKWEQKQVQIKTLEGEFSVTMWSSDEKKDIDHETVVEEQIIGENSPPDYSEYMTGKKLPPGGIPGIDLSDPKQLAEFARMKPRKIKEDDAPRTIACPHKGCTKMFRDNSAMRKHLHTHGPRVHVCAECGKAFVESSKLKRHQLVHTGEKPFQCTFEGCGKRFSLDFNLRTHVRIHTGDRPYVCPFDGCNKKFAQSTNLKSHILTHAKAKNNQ

Binder	binding result (YY1 [1])	binding result (YY1 [2])
WT FEN1 (dsDNA) DNA 1: AACGCTCTCACCATTTTGCCCCGCGAAG DNA 2: CTTCGCGGGGCAAAATGGTGAGAGCGTT	binds	–
MUT FEN1 (dsDNA) DNA 1: AACGCTCTCAGCAATTTGCCCCGCGAAG DNA 2: CTTCGCGGGGCAAATTGCTGAGAGCGTT	–	no binding
